Experimental findings from patent US20110077250, “COMPOUNDS FOR MODULATING RNA BINDING PROTEINS AND USES THEREFOR” (published 2011) are described below.

The target of this series is T1, MEX-5 (UniProt Q9XUB2 Q9XUB2:236-350).
T1 sequence: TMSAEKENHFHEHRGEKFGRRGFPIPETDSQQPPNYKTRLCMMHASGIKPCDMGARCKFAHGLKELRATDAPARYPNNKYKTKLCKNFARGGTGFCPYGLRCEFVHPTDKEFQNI
Description: FP; 120 nM protein, 2 nM RNA, 100 uM zinc acetate, 20-50 mM Tris pH 8.0, 40-100 mM NaCl, tRNA; Z-value 0.8-0.9; also by gel shift; small-molecule inhibition of complex measured. As to conditions: tags: N-terminal MBP fusion (pMal-c, NEB); HTS paragraph says C-terminal fusion to MBP; from Open Biosystems ORFeome clone; label: 3'-fluorescein (FITC). On the technique in general: A gel shift assay detects complexes by their altered migration in electrophoresis.

Consider UUUCUUUAUAACUUGUUACAAUUUUUGAAA (ssRNA) [TCR2 RNA], for which the binding result was “binds”.
